# According to patent US12686710B2, “Anti-HER2 polypeptides derivatives as new diagnostic molecular probes” (BRACCO IMAGING S.P.A., priority 2019, dated 2026):
# Legend:
# [1] = tested on: MCF-7 breast cancer cell line (low expressing HER2 receptor); test: Cell internalization assay with Pe38 fusion, cell viability; type: cell-based, human; settings: Aff03 tested as fusion Aff04-0-Pe38 (SEQ ID NO: 5), different concentrations
# Protocol: (§1) The cells internalization of Aff03 was evaluated using a dedicated cell-based assay. […] Such truncated form (Pe38) needs to be internalized by means of the Aff03 to keep its cytotoxic activity.
# (§2) To test internalization, then, the viability of the breast adenocarcinoma cell line SK-BR-3 (overexpressing HER2 receptor) and of the breast cancer cell line MCF-7 (low expressing HER2 receptor) was measured at different nanofitin concentrations.
# [2] = tested on: SK-BR-3 breast adenocarcinoma cell line (overexpressing HER2 receptor); test: as above; type: cell-based, human; settings: Aff03 tested as fusion Aff04-0-Pe38 (SEQ ID NO: 5), different concentrations
# Protocol: as §1, §2
# HER2 = HER2 (Homo sapiens, UniProt P04626); test: ELISA monitoring of affitin selection against HER2; type: binding; settings: end of selection process
# Excerpt: (§3) To selectively target HER2 receptor, a library of affitins has been enriched against the target by several consecutive rounds of screening (up to 6 rounds). The enrichment of anti-HER2 afftins has been followed after any selection round by ELISA assay monitoring, also controlling the condition of negligible binding to human (HSA), murine (MSA) and bovine (BSA) serum albumin.
# [3] = tested on: human (HSA), murine (MSA) and bovine (BSA) serum albumin; test: ELISA control of binding to serum albumins
# Excerpt: as §3
molecule,measurement,setting,value
"Aff03: 64 aac affitin of SEQ ID NO: 1, HER2-binding polypeptide (protein, listed as Sulfolobus acidocaldarius) VKVKFGHMGEEKEVDTSKIYAVNRAGKFVHFAYDDNGKFGSGSVPEKDAPKELLDMLARAEREK",cytotoxic induction (cell viability) as measure of internalization,[1],no significant alterations
same,cytotoxic induction (cell viability) as measure of internalization,[2],dose-dependent cytotoxic induction
same,affinity to HER2,HER2,nanomolar affinity
same,binding to albumin,[3],absence of binding to albumin
